Laboratory results as given in PMC2912355 (Molecular Biology of the Cell, 2010).

B1: IFT70/CrDYF-1 (natural protein, C. reinhardtii (endogenous in flagella), UniProt A8ITN7 1-647, looked up)
chain: MAFFQQPARPIAEGQYTQTIYTLIKEQKFAEAIQHLQYQLQNVPESRAALSLLGYCYYYTGQYDMASQMYEQLVTLYPSNEDYKLYYAQSLYKGGMYPEASKAVVKVEGHQKAVTTLLVACSYEQDDLTGCRRQLDKCAPEDPDTMVNTGCIMFKEGKFEAARQKFNDAVQALGYQPELLYNIALCYYKTKQFGPALKHLAEIIEKAVREHPELSVGSNTDGMEVRSVGNSQTLKETALIEAFNLKAAIEYTMKNVEAAKEALTDMPPRAEEELDPVTLHNSALINMDSDPTGGFKKLNFLLQSPPFPPETFANLLLLYCKPSHGFYDLAADVLAENPQYAGKLLSPDLYDYLQAAIGRYKSPEEAFRRFDELATRHVEQLRRLTKQIQDARIARDNDAIKRAINEYDEALEAYIPGLMAMASIYWDMELYSNVEKIFRQSAEFCSEHEVWKLNVAHTFFMQDNHYKEAIRYYEPVVKKNADNLLGVTAIVLANLCVSYIMTSQNEEAEELMRKVEKEEERSSMQDPDKPCFHLCIINLVIGTLYCAKGNYEFGVSRIIKSLEPYDKKLETDTWYYAKRCFLALIENLAKHMIVLKDSSFTEIMAFLNEAEKHGKDIRVVFNEGKHQSRTIASEARMLKKMFLKLRD

Tests used:
[1] = target: Strep-II-Tag IFT46 (C. reinhardtii) (UniProt A2T2X4); test: pull-down
IFT57 = target: T1, IFT57 (C. reinhardtii (endogenous in flagella), UniProt Q2XQY7 1-469); test: co-sedimentation
T1 sequence (looked up): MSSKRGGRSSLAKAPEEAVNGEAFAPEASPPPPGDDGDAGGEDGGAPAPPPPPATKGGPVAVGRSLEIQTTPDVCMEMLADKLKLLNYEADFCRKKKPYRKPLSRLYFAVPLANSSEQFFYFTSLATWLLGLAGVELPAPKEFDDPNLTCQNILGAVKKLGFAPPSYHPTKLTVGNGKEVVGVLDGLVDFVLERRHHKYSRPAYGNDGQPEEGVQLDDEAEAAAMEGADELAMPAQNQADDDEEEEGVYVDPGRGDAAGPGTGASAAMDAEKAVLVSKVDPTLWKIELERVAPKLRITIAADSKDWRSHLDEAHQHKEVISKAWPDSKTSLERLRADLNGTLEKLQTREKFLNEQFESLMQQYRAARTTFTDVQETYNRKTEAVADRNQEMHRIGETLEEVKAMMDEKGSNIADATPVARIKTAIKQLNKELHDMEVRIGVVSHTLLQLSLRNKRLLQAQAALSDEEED

IFT72 = target: T2, IFT72 (C. reinhardtii (endogenous in flagella), UniProt Q6RCE1 1-641); test: co-sedimentation
T2 sequence (looked up): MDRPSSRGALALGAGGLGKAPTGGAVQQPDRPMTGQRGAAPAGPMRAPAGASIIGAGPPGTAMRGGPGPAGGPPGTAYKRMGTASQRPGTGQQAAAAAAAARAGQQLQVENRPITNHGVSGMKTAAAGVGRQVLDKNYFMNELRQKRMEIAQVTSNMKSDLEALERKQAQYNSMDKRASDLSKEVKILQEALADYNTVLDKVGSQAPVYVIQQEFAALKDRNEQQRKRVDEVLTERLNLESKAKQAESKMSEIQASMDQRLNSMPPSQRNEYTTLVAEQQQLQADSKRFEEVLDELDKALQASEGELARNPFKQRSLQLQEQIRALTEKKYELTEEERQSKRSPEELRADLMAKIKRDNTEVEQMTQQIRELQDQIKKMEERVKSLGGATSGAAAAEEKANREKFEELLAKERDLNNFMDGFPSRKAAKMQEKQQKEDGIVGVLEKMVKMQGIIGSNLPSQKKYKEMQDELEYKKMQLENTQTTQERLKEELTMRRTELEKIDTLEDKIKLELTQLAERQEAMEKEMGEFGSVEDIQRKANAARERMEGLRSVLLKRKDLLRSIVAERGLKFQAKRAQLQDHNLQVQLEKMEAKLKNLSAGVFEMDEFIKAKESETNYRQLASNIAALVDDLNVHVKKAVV

Chain of Strep-II-Tag IFT46 (C. reinhardtii) (A2T2X4 whole entry): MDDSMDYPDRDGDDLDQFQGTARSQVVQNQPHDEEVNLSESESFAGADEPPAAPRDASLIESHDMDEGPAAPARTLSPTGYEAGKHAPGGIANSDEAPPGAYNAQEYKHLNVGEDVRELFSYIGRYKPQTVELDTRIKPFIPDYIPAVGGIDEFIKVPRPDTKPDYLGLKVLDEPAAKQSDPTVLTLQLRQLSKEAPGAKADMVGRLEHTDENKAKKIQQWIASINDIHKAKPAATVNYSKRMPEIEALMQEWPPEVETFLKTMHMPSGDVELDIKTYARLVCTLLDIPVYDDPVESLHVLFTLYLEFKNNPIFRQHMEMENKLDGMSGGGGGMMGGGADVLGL

Row | Molecule | stoichiometry N [1] | stoichiometry N (IFT57) | stoichiometry N (IFT72)
1 | MBP-IFT70/CrDYF-1 (natural protein) | 1 | – | –
2 | B1 | – | ~1 | ~1
